This is an account of results in patent US20250197501A1 (DEVELOPMENT CENTER FOR BIOTECHNOLOGY, published 2025).

As usually defined, the Kd is the concentration at which binding is half-saturated. As a reminder, the koff is the rate constant with which the complex falls apart. By kon is commonly meant a measure of how fast the partners come together. Broadly, the EC50 is the concentration that produces a half-maximal response.

The target in experiment [1] is T1, human B7-H3 on the surface of human cancer cells (human, UniProt Q5ZPR3 29-534).
T1 sequence: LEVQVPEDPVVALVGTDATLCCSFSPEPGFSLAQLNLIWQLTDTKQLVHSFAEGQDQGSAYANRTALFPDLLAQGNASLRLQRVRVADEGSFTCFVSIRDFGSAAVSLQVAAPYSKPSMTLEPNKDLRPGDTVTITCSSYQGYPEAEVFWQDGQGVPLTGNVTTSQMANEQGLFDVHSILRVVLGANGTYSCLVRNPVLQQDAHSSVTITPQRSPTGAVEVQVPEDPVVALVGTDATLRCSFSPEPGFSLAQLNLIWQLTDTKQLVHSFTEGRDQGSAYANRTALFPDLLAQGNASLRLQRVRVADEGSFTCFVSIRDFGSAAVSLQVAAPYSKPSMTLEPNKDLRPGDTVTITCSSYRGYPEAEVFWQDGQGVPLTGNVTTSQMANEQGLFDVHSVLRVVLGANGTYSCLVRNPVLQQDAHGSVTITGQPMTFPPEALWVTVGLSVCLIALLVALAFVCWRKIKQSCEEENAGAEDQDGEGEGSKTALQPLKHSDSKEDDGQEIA
In words: cell-based or functional assay.

The target in experiment [2] is T2, recombinant human B7-H3-mFc protein (human, UniProt Q5ZPR3 29-466).
T2 construct: also called B7-H3 protein; not shown: mouse Fc domain
T2 sequence: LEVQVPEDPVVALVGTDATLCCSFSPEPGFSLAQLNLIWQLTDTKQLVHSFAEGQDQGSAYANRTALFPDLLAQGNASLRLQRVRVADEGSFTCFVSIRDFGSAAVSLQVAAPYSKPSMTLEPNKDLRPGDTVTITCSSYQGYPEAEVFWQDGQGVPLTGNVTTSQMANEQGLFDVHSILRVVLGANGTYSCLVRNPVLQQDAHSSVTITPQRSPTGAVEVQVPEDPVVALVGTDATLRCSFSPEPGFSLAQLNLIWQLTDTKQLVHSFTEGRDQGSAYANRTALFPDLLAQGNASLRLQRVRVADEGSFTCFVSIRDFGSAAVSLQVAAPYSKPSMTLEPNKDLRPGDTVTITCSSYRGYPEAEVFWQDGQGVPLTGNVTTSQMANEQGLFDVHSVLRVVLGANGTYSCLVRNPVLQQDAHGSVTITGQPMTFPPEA
In words: SPR; MMAE conjugate, not parental mAb. The procedure: The binding kinetics of the present antibodies against human B7-H3 were determined by Biacore™ assay. Carboxymethylated dextran biosensor chips (CM5) were activated according to the supplier's instructions. Anti-human IgG (Fc) was diluted with immobilization buffer before injection at a flow rate of 10 μL/minute to achieve approximately 10,000 response units (RU) of coupled protein followed by the injection of 1 M ethanolamine to block unreacted groups. Human anti-B7-H3 antibodies were captured on anti-human IgG chip. For kinetics measurements, two-fold serial dilutions of human B7-H3-mFc protein (from 40 nM to 0.3125 nM) were injected in HBS-EP⁺ Biacore™ running buffer provided by the manufacturer at a flow rate of 30 μL/min.
A general note: SPR reads the build-up and loss of mass on a sensor chip optically.

Experiment [3] has as its target T3, recombinant rat B7-H3-mFc protein (rat, UniProt Q7TPB4 29-244).
T3 construct: also called rat B7-H3 mFc chimeric protein; rat B7-H3 Fc chimeric protein; not shown: mouse Fc domain
T3 sequence: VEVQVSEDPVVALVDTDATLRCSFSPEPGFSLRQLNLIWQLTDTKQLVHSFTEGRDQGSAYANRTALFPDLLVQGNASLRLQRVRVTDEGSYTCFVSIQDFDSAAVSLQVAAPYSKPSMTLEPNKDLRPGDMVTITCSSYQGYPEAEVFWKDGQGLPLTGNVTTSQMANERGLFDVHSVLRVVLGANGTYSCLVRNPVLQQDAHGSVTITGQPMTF
In words: ELISA, plate coated with rat B7-H3 mFc. As to the method:
(§1) The binding affinity of full-length antibodies to human, monkey, mouse and rat B7-H3 were evaluated by ELISA. In brief, 96-well plate was coated with B7-H3 proteins (i.e., human B7-H3-mFc protein, cynomolgus monkey B7-H3 protein or rat B7-H3 Fc chimeric protein) in coating buffer and incubated overnight at 4° C. After washing with PBS for 3 times, the 96-well plate was inverted and tapped on clean absorbent papers to remove excess liquid. The blocking buffer (PBS containing 1% bovine serum albumin (BSA) was added to the wells, followed by incubating the plate at 37° C. for 1 hour with gentle continual shaking. After washing with PBS for 3 times, serial dilutions of anti-B7-H3 antibody (in PBS containing 1% BSA) were added into the wells. The plate was incubated at 37° C. for 1 hour with gentle continual shaking. After washing with PBS for 3 times, the secondary antibody (peroxidase-conjugated AffiniPure™ F(ab′)₂ fragment goat anti-human IgG (H+L)) was added into the wells and then incubated at 37° C. for 1 hour with gentle continual shaking. The plate was washed with PBS for 3 times, and the TMB substrate was added into each well and incubated at room temperature for 5 minutes, avoiding from light. 1 N HCl stop solution was added into each well and the absorbance was measured at 450/650 nm. The binding affinity value (EC50) of antibodies was determined by software.

For experiment [4], the target named is T2, recombinant human B7-H3-mFc protein. In words: ELISA, plate coated with human B7-H3-mFc. As to the method: as §1
A general note: An ELISA detects its analyte on a solid surface through an enzyme-linked reagent.

Experiment [5] concerns the target T4, recombinant mouse B7-H3-mFc protein (mouse, UniProt Q8VE98 29-244).
T4 construct: not shown: mouse Fc domain
T4 sequence: T3 sequence with R33A, A62S, D131N, L156V, M214L
In words: ELISA, plate coated with mouse B7-H3 mFc. The procedure: as §1

The target in experiment [6] is T2, recombinant human B7-H3-mFc protein. In words: SPR (Biacore), antibody captured on anti-human IgG chip, B7-H3 protein injected.
In experiment [7] the target is T3, recombinant rat B7-H3-mFc protein. The description is as above.
Experiment [8] concerns the target T4, recombinant mouse B7-H3-mFc protein. The description is as above.
Experiment [9] deals with B7-H1. Description: ELISA on the named B7 family protein (Example 1.1), A450 readout; antibody concentration not given.
For experiment [10], the target named is T5, B7-H2.
T5 chain: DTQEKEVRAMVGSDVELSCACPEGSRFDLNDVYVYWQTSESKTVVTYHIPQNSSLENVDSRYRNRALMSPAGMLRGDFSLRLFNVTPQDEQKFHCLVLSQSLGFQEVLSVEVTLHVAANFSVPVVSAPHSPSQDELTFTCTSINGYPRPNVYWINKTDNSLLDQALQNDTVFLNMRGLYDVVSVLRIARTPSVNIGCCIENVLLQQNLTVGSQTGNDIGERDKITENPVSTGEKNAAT
Described as above.

Experiment [11] deals with T6, B7-H4.
T6 construct: Member of the group m9
T6 chain: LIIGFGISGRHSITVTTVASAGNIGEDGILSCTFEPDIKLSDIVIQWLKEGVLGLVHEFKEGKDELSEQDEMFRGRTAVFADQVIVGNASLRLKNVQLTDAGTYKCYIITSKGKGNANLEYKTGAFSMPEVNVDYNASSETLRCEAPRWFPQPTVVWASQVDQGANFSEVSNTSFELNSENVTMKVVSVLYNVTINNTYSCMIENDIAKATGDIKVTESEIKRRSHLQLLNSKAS
Described as above.

For experiment [12], the target named is T7, B7-H6.
T7 chain: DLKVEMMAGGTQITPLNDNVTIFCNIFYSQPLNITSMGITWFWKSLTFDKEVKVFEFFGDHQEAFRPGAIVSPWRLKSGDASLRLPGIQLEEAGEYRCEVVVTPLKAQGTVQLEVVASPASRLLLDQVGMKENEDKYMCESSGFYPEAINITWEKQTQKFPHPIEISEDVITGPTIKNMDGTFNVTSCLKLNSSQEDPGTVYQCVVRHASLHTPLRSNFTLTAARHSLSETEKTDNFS
The experiment is described as above.

The target in experiment [13] is T8, B7-H7.
T8 chain: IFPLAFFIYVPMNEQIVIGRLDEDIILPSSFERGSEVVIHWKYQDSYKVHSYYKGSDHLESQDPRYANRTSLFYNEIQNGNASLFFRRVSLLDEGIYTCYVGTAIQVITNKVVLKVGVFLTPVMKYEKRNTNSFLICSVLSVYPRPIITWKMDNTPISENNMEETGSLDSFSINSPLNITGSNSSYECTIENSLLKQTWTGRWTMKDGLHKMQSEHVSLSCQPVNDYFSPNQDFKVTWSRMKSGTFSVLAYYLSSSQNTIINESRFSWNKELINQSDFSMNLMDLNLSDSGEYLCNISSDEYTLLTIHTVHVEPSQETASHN
The description is as above.

Experiment [14] concerns the target T1, human B7-H3 on the surface of human …. In words: cell-based or functional assay. The source holds these as a separate data set.
Experiment [15] concerns the target T9, recombinant cynomolgus monkey B7-H3 protein (cynomolgus monkey, UniProt Q7TPB4 26-248 (rat entry)).
T9 chain: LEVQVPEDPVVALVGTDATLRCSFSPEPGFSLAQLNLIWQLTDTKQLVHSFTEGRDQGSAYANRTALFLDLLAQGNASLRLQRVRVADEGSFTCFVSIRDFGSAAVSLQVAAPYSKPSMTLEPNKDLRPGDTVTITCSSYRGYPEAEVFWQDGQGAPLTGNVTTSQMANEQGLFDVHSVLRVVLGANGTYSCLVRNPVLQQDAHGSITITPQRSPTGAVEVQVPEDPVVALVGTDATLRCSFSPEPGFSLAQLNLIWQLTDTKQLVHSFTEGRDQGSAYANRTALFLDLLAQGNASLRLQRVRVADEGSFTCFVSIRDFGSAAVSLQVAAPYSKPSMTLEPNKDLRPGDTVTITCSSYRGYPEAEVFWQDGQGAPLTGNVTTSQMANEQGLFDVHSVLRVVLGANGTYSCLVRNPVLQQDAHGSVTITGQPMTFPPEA
Description: ELISA, plate coated with cynomolgus monkey B7-H3.

Numbering of substitutions follows the chain as printed. Where two headings read alike, the source gives them in different places.

B1: 91H06-MMAE (other)
VH: EVQLVESGGGLVQPGGSLRLSCAASGFTFSDYGMGWVRQAPGKGLEWVSSISWDSSSKEYADSVKGRFTISRDNSKNTLYLQMNSLRAEDTAVYYCARAWIAIIGGGAHFDYWGQGTLVTVSS
VL: DIQMTQSPSSLSASVGDRVTITCRASQSVSSHLAWYQQKPGKAPKLLIYLTSSLQSGVPSRFSGSGSGTDFTLTISSLQPEDFATYYCMQSKSLPFTFGQGTKVEIKR
modifications: MMAE linked through a PEG linker and a protease-sensitive valine-citrulline or glutamate-valine-citrulline linker to the azide-modified antibody (mAb-4 Azide, tri-mannosyl ADC platform); DAR between 3.5 and 3.9; attachment residue not stated
notes: also called the present ADC
Consider B1, for which, in experiment [1], the “Cytotoxicity activity (IC50, nM), CAL 27 cells” value was below 50 nM; the “Cytotoxicity activity (IC50, nM), Detroit 562 cells” value is below 50 nM; the “Cytotoxicity activity (IC50, nM), FaDu cells” value is below 50 nM; the “Cytotoxicity activity (IC50, nM), LNCaP cells” value is below 50 nM. In experiment [2], the Kd amounted to 240 pM, the koff worked out at 0.000155 s⁻¹ and the on-rate (kon) turned out to be 643000 M⁻¹ s⁻¹.

B2: mAb 91H06 (antibody, V domains shown)
VH: B1 VH
VL: B1 VL
notes: Fully human, detected with anti-human IgG; also called antibody 91H06; anti-B7-H3 monoclonal antibody 91H06
With B2, the EC50 stood at 60.1 pM in [3], 18.6 pM in [4] and 76.7 pM in experiment [5]. The equilibrium dissociation constant (Kd) in experiment [6] was determined as 227 pM; in experiment [8], 2030 pM. In addition, the kon in experiment [7] was 178000 M⁻¹ s⁻¹. Besides, the binding result in [9], in [10], in [11], in [12] and in experiment [13] was “no binding” throughout.

B3: 91H06-MMAF (other)
VH: B1 VH
VL: B1 VL
modifications: MMAF linked through a PEG linker and a protease-sensitive valine-citrulline or glutamate-valine-citrulline linker to the azide-modified antibody (mAb-4 Azide, tri-mannosyl ADC platform); DAR between 3.5 and 3.9; attachment residue not stated
As for B3, in experiment [14], the “Cytotoxicity activity (IC50, nM), CAL 27 cells” value was below 10 nM; the “Cytotoxicity activity (IC50, nM), Detroit 562 cells” value was below 10 nM; the “Cytotoxicity activity (IC50, nM), FaDu cells” value is below 10 nM; the “Cytotoxicity activity (IC50, nM), LNCaP cells” value was below 10 nM.

B4: Ifinatamab (antibody, V domains shown)
VH: QVQLVQSGAEVKKPGSSVKVSCKASGYTFTNYVMHWVRQAPGQGLEWMGYINPYNDDVKYNEKFKGRVTITADESTSTAYMELSSLRSEDTAVYYCARWGYYGSPLYYFDYWGQGTLVTVSS
VL: EIVLTQSPATLSLSPGERATLSCRASSRLIYMHWYQQKPGQAPRPLIYATSNLASGIPARFSGSGSGTDFTLTISSLEPEDFAVYYCQQWNSNPPTFGQGTKVEIK
B4: the EC50 amounted to 35.6 pM in [4] and 127 pM in [15].
